According to paper PMC548347:

Target: T1, SSB (single-strand binding protein) (Sulfolobus solfataricus, UniProt Q97W73 1-148)
T1 sequence: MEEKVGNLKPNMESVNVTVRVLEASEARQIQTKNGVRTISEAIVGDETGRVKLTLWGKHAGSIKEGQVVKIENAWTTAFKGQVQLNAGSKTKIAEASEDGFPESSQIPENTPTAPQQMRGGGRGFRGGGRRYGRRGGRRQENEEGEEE
Test: EMSA

B1: RGA oligonucleotide (dsDNA)
DNA 1: GGCTGTCGACGAAGATAGAGGACTTAATCGATATC
DNA 2: GGGATATCGATTAAGTCCTCTATCTTCGTCGACAG
B1: binds.
